B1: RSPH3 (parent)
chain: FIPAKTGKDVATQILEGELFDFDL
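Further: lentivirally expressed fusions sorted by FACS into six bins by GFP to DsRed ratio, PSI derived from sequencing read proportions per bin multiplied by bin number.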

Variants of B1 are the subject of this data set. Nature of the data set: protein stability index of a GFP-peptide fusion (GPS, HEK-293T) (PSI 1-6); higher = more stable. The settings on record: c terminus: a fixed tail appended.
On to FIPAKTGKDVATQILEGELFDFDM [L24M], for which the protein stability index was found to be 2.23. For FIPAKTGKDVATQILEGELFDFDY [L24Y] the value was 1.75. As for FIPAKTGKDVATQILEGELFDFDS [L24S], the figure is 2.36. For the variant FIPAKTGKDVATQILEGELFDFDN [L24N], the protein stability index was determined as 2.43. For FIPAKTGKDVATQILEGELFDFDG [L24G] the value was 2.75; for FIPAKTGKDVATQILEGELFDFDA [L24A], 2.67; for FIPAKTGKDVATQILEGELFDFDF [L24F], 1.95. As to FIPAKTGKDVATQILEGELFDFDW [L24W], the protein stability index amounted to 3.71.

Take FIPAKTGKDVATQILEGELFDFDC [L24C]: the protein stability index stood at 2.36.

As to FIPAKTGKDVATQILEGELFDFDK [L24K], the protein stability index worked out at 2.79. For FIPAKTGKDVATQILEGELFDFDH [L24H] the value was 2.68; for FIPAKTGKDVATQILEGELFDFDI [L24I], 2. Take FIPAKTGKDVATQILEGELFDFDP [L24P]: the protein stability index worked out at 2.47.

In the case of FIPAKTGKDVATQILEGELFDFDE [L24E], the protein stability index was found to be 2.78.

As for FIPAKTGKDVATQILEGELFDFDD [L24D], the protein stability index amounted to 3.04.

Regarding FIPAKTGKDVATQILEGELFDFDQ [L24Q], the protein stability index was 2.7. As to FIPAKTGKDVATQILEGELFDFDT [L24T], the protein stability index came out at 2.39.

Turning to FIPAKTGKDVATQILEGELFDFDV [L24V], the protein stability index came to 1.85. For FIPAKTGKDVATQILEGELFDFDR [L24R] the value was 2.31.

In the case of FIPAKTGKDVATQILECELFDFDL [G17C], the protein stability index was 2.54. In the case of FIPAKTGKDVATQILEQELFDFDL [G17Q], the protein stability index amounted to 2.26. FIPAKTGKDVATQILETELFDFDL [G17T]: the protein stability index is 2.11.

As for FIPAKTGKDVATQILEVELFDFDL [G17V], the protein stability index turned out to be 2.75. On to FIPAKTGKDVATQILEHELFDFDL [G17H], for which the protein stability index was found to be 2.34.

Take FIPAKTGKDVATQILELELFDFDL [G17L]: the protein stability index was 1.48.

Consider FIPAKTGKDVATQILERELFDFDL [G17R], for which the protein stability index turned out to be 2.15. As for FIPAKTGKDVATQILEKELFDFDL [G17K], the figure is 1.93; as for FIPAKTGKDVATQILEAELFDFDL [G17A], 2.14.

For FIPAKTGKDVATQILEPELFDFDL [G17P], the protein stability index worked out at 1.37. As for FIPAKTGKDVATQILEYELFDFDL [G17Y], the figure is 2.06; as for FIPAKTGKDVATQILEIELFDFDL [G17I], 2.31. As for FIPAKTGKDVATQILEEELFDFDL [G17E], the figure is 3; as for FIPAKTGKDVATQILESELFDFDL [G17S], 1.56; as for FIPAKTGKDVATQILEFELFDFDL [G17F], 2.72. Regarding FIPAKTGKDVATQILEMELFDFDL [G17M], the protein stability index was 1.71. For FIPAKTGKDVATQILEWELFDFDL [G17W], the protein stability index is 1.95. As for FIPAKTGKDVATQILEDELFDFDL [G17D], the figure is 1.75. FIPAKTGKDVATQILENELFDFDL [G17N]: the protein stability index amounted to 1.32. Regarding FIPAKTGKDVATQILNGELFDFDL [E16N], the protein stability index was determined as 2.34. In the case of FIPAKTGKDVATQILHGELFDFDL [E16H], the protein stability index is 1.32. Consider FIPAKTGKDVATQILSGELFDFDL [E16S], for which the protein stability index is 2.76. Consider FIPAKTGKDVATQILRGELFDFDL [E16R], for which the protein stability index is 2.46. Regarding FIPAKTGKDVATQILPGELFDFDL [E16P], the protein stability index was found to be 1.8. For FIPAKTGKDVATQILIGELFDFDL [E16I] the value was 2.24; for FIPAKTGKDVATQILWGELFDFDL [E16W], 2.07; for FIPAKTGKDVATQILMGELFDFDL [E16M], 3.38. Consider FIPAKTGKDVATQILDGELFDFDL [E16D], for which the protein stability index stood at 1.86.

FIPAKTGKDVATQILTGELFDFDL [E16T]: the protein stability index worked out at 1.63. For FIPAKTGKDVATQILYGELFDFDL [E16Y] the value was 2.01; for FIPAKTGKDVATQILLGELFDFDL [E16L], 1.73; for FIPAKTGKDVATQILAGELFDFDL [E16A], 1.46. As to FIPAKTGKDVATQILGGELFDFDL [E16G], the protein stability index amounted to 2.34.

In the case of FIPAKTGKDVATQILFGELFDFDL [E16F], the protein stability index was 3.82. As for FIPAKTGKDVATQILQGELFDFDL [E16Q], the figure is 1.7; as for FIPAKTGKDVATQILKGELFDFDL [E16K], 2.11; as for FIPAKTGKDVATQILVGELFDFDL [E16V], 2.04. As for FIPAKTGKDVATQILCGELFDFDL [E16C], the figure is 2.32. Consider FIPAKTGKDVATQILEGELFLFDL [D21L], for which the protein stability index stood at 3. For FIPAKTGKDVATQILEGELFPFDL [D21P] the value was 2.47; for FIPAKTGKDVATQILEGELFNFDL [D21N], 1.53; for FIPAKTGKDVATQILEGELFVFDL [D21V], 1.66. As for FIPAKTGKDVATQILEGELFKFDL [D21K], the figure is 1.96. As for FIPAKTGKDVATQILEGELFIFDL [D21I], the figure is 2.72; as for FIPAKTGKDVATQILEGELFTFDL [D21T], 3.06; as for FIPAKTGKDVATQILEGELFCFDL [D21C], 2.71. Consider FIPAKTGKDVATQILEGELFEFDL [D21E], for which the protein stability index worked out at 1.49. For FIPAKTGKDVATQILEGELFFFDL [D21F] the value was 2.45. For FIPAKTGKDVATQILEGELFMFDL [D21M] the value was 2.98; for FIPAKTGKDVATQILEGELFHFDL [D21H], 1.79. For FIPAKTGKDVATQILEGELFWFDL [D21W] the value was 3.1; for FIPAKTGKDVATQILEGELFRFDL [D21R], 1.8. As for FIPAKTGKDVATQILEGELFYFDL [D21Y], the protein stability index amounted to 2.78. For FIPAKTGKDVATQILEGELFSFDL [D21S], the protein stability index turned out to be 2.54.

On to FIPAKTGKDVATQILEGELFGFDL [D21G], for which the protein stability index was determined as 2.24. For FIPAKTGKDVATQILEGELFAFDL [D21A], the protein stability index was 2.33. In the case of FIPAKTGKDVATQILEGELFQFDL [D21Q], the protein stability index stood at 1.53. As for FIPAKTGKDVATQILEGELFDKDL [F22K], the figure is 2.74. Regarding FIPAKTGKDVATQILEGELFDMDL [F22M], the protein stability index was 2.54. Turning to FIPAKTGKDVATQILEGELFDWDL [F22W], the protein stability index stood at 1.91. FIPAKTGKDVATQILEGELFDCDL [F22C]: the protein stability index came to 1.84. As for FIPAKTGKDVATQILEGELFDADL [F22A], the figure is 2.31. As for FIPAKTGKDVATQILEGELFDPDL [F22P], the figure is 1.82. For FIPAKTGKDVATQILEGELFDYDL [F22Y] the value was 2.12; for FIPAKTGKDVATQILEGELFDDDL [F22D], 3.7.

Consider FIPAKTGKDVATQILEGELFDIDL [F22I], for which the protein stability index worked out at 1.68. For FIPAKTGKDVATQILEGELFDEDL [F22E] the value was 3.2; for FIPAKTGKDVATQILEGELFDGDL [F22G], 2.81; for FIPAKTGKDVATQILEGELFDVDL [F22V], 2.21. For FIPAKTGKDVATQILEGELFDLDL [F22L] the value was 1.98; for FIPAKTGKDVATQILEGELFDQDL [F22Q], 2.84. As for FIPAKTGKDVATQILEGELFDHDL [F22H], the figure is 2.56.

For the variant FIPAKTGKDVATQILEGELFDNDL [F22N], the protein stability index stood at 2.87. Consider FIPAKTGKDVATQILEGELFDRDL [F22R], for which the protein stability index was determined as 2.42. Regarding FIPAKTGKDVATQILEGELFDTDL [F22T], the protein stability index is 2.67.
